The results in this text go back to patent publication US20150167014A1, “MODULATION OF PLANT GROWTH BY VAS1 MUTATION” (THE SALK INSTITUTE FOR BIOLOGICAL STUDIES, priority 2013, published 2015).

By Km is commonly meant the substrate concentration at which the rate is half of its maximum. The kcat is the maximal rate divided by the concentration of active sites.

Substrate in series [1]: N[C@@H](Cc1c[nH]cn1)C(=O)O
Kind of series: Steady-state kinetic assay of VAS1 I267M transaminase activity (rate of loss of IPA at 321 nm). It is filed as biochemical, Arabidopsis thaliana. As to conditions: other: fixed 3-IPA 300 μM, variable L-His 0.1 to 10 mM, 0.4 μM VAS1 I267M, 100 μM PLP, pH 8.0, 23° C. Here is the method:
(§1) FIG. 9A-B. Steady-state kinetic analyses of VAS1 I267M. […] Fixed concentration of L-His (10 mM) and variable concentrations of 3-IPA from 10 to 200 μM (A) Fixed concentration of 3-IPA (300 μM) and variable concentrations of L-His from 0.1 to 10 mM (B). Apparent KM, Vmax and kcat of VAS1 are shown above each curve and standard errors calculated from Graphpad Prism 5 software (www.graphpad.com).
(§2) The coding sequence of AtVAS1 was inserted between the NcoI and XhoI sites of the expression vector pHIS8 (“HIS8” disclosed as SEQ ID NO: 1) (a modified version of pET28a (+) containing an N-terminal 8-histidine tag (SEQ ID NO: 1)), which under the control of a T7 promoter. E. coli (BL21) cells harboring the AtVAS1 expression vector were grown in Terrific Broth at 37° C. until reaching an OD600 nm of 1.0 then cooled down to 18° C. and induced with 0.5 mM isopropyl-b-D-thiogalactoside (IPTG) and allowed to grow overnight at 18° C. for approximately 12-14 hr after. Cells were harvested by centrifugation and resuspended in lysis buffer (50 mM Tris-HCl, pH 8.0, 500 mM NaCl, 20 mM imidazole, 1% (v/v) Tween-20, 10% (v/v) glycerol, 10 mM 2-mercaptoethanol) containing lysozyme (0.5 mg/ml) at 4° C. for 1 hr and lysed by sonication. The lysate was centrifuged at 18,000 rpm for 45 min at 4° C. and then the supernatant were passed over Ni2+-NTA agarose (Qiagen). The AtVAS1 protein was eluted with lysate buffer supplemented with 250 mM imidazole after washed with wash buffer (lysis buffer without Tween-20 and glycerol). The N-terminal tag was cleaved by treatment with thrombin while dialyzing overnight in dialysis buffer (50 mM Tris-HCl, (pH8.0), 500 mM NaCl, 20 mM 2-mercaptoethanol). The thrombin and uncut AtVAS1 was removed by passing over Benzamidine Sepharose 4 Fast Flow (high sub) (GE Healthcare) and Ni2+-NTA agarose. AtVAS1 was further purified by size-exclusion chromatography using a Superdex 200 HR16/60 column. AtVAS1 fractions were combined, concentrated to approximately 12 mg ml-1 and frozen at −80° C. […]
(§3) For VAS1 I267M steady-state kinetic assays, 1 mL assay mixture contained 100 mM sodium phosphate buffer (pH 8.0), 0.4 μM recombinant VAS1 I 267M, 100 μM PLP and variable amounts of His (0.1 to 10 mM) and IPA (10 to 200 μM). The reactions were incubated at 23° C. and the OD321 nm were measured at 2-min, 5-min, 8-min, 10-min, 12-min and 15-min time points to monitor the linear rate of loss of IPA. Absorbance values were corrected to changes in IPA concentration based on an IPA standard curve. At 321 nm, absorbance from Trp was negligible. KM, kcat and Vmax were calculated by nonlinear regression analysis using GraphPad Prism 5 fits to the Michaelis-Menten equation.

Substrate in series [2]: O=C(O)C(=O)Cc1c[nH]c2ccccc12
Described as above. It is filed as biochemical, Arabidopsis thaliana. As to conditions: other: fixed L-His 10 mM, variable 3-IPA 10 to 200 μM, 0.4 μM VAS1 I267M, 100 μM PLP, pH 8.0, 23° C. Here is the method:
as §1, §2, §3

Series [3] is described as follows: Amino donor test of VAS1 variants (19 amino acids, 3-IPA as amino acceptor). It is filed as biochemical, Arabidopsis thaliana. As to conditions: 19 natural amino acids (except Trp) as amino donor. Here is the method:
VAS1 and its variants transaminase activity was monitor by HPLC-MS with an Agilent 1100 series LC-MSD instrument and an Agilent Zorbax Eclipse XDB-C18 (4.6×150 mm, […]) reversed-phase column. Chromatographic separations employed a flow rate of 0.5 mL min-1 and a linear gradient with initial and final mobile phases consisting of 95% water: 4.9%: acetonitrile: 0.1% formic acid (v/v/v), and 5% water: 94.9% acetonitrile: 0.1% formic acid (v/v/v), respectively. VAS1 mutants relative activity assays were conducted in a 200 μL volume containing 50 mM L-Met (with the exception of L-Trp), 10 mM IPA, 200 μM PLP and 10 μg of purified VAS1 or VAS1 variants protein in a reaction buffer consisting of 50 mM K2HPO4/KH2PO4 (pH 8.5). To further test the best amino donor of I267M and I267F mutant, one of 19 other amino acids (with the exception of L-Trp) was taking the place of L-Met. […] Relative specific activities were calculated after integration of the Trp peak (based on the absorbance at 254 nm) and the activity against Met and IPA was arbitrarily set to 100% for VAS1 variants M19V, M19I, M19F, I267V, 1267 M and I267F. […]

Series [4] deals with the molecule itself. Kind of series: X-ray crystal structure of VAS1•PLP complex.

B1: Arabidopsis thaliana aminotransferase VAS1 (AtVAS1, NCBI Accession No. NP—178152, SEQ ID NO: 14), variant I267M (Ile267Met) (Arabidopsis thaliana; I267M) (protein)
chain: MGSFGMLSRRTLGTDMPVMAQIRSLMAELTNPMSLAQGVVHWQPPQKALEKVKELVWDPIISSYGPDEGLPELRQALLKKLREENKLTNSQVMVTAGANQAFVNLVITLCDAGDSVVMFEPYYFNSYMAFQMTGVTNIIVGPGQSDTLYPDADWLERTLSESKPTPKVVTVVNPGNPSGTYVPEPLLKRIAQICKDAGCWLIVDNTYEYFMYDGLKHCCVEGDHIVNVFSFSKTYGMMGWRLGYIAYSERLDGFATELVKIQDNIPMCAAIISQRLAVYALEEGSGWITERVKSLVKNRDIVKEALEPLGKENVKGGEGAIYLWAKLPEGHRDDFKVVRWLAHRHGVVVIPGCASGSPGYLRVSFGGLQEVEMRAAAARLRKGIEELLHHGMVE
notes: I267M by QuikChange mutagenesis
On to B1, for which, in series [1], the Km came out at 534 µM and the kcat is 0.0392 s⁻¹. Further, in series [2], the Km was 62.4 µM and the kcat was 0.0447 s⁻¹.

B2: VAS1: wild-type pyridoxalphosphate-dependent aminotransferase of Arabidopsis thaliana (protein)
chain: MGSFGMLSRRTLGTDMPVMAQIRSLMAELTNPMSLAQGVVHWQPPQKALEKVKELVWDPIISSYGPDEGLPELRQALLKKLREENKLTNSQVMVTAGANQAFVNLVITLCDAGDSVVMFEPYYFNSYMAFQMTGVTNIIVGPGQSDTLYPDADWLERTLSESKPTPKVVTVVNPGNPSGTYVPEPLLKRIAQICKDAGCWLIVDNTYEYFMYDGLKHCCVEGDHIVNVFSFSKTYGMMGWRLGYIAYSERLDGFATELVKIQDNIPICAAIISQRLAVYALEEGSGWITERVKSLVKNRDIVKEALEPLGKENVKGGEGAIYLWAKLPEGHRDDFKVVRWLAHRHGVVVIPGCASGSPGYLRVSFGGLQEVEMRAAAARLRKGIEELLHHGMVE
For B2, the “aminotransferase activity / most efficient amino donor” value in series [3] is “Met is the most suitable amino donor”.

B3: Arabidopsis thaliana aminotransferase VAS1 (enzyme)
chain: MGSFGMLSRRTLGTDMPVMAQIRSLMAELTNPMSLAQGVVHWQPPQKALEKVKELVWDPIISSYGPDEGLPELRQALLKKLREENKLTNSQVMVTAGANQAFVNLVITLCDAGDSVVMFEPYYFNSYMAFQMTGVTNIIVGPGQSDTLYPDADWLERTLSESKPTPKVVTVVNPGNPSGTYVPEPLLKRIAQICKDAGCWLIVDNTYEYFMYDGLKHCCVEGDHIVNVFSFSKTYGMMGWRLGYIAYSERLDGFATELVKIQDNIPICAAIISQRLAVYALEEGSGWITERVKSLVKNRDIVKEALEPLGKENVKGGEGAIYLWAKLPEGHRDDFKVVRWLAHRHGVVVIPGCASGSPGYLRVSFGGLQEVEMRAAAARLRKGIEELLHHGMVE
modifications: PLP (pyridoxal phosphate) bound as internal aldimine to the epsilon-amino group of Lys 233
notes: The protein crystallised as a symmetric homodimer with PLP; also called AtVAS1
For the molecule B3, in series [4], the binding result is on record as “binds”.
